Legend:
GRG31 EPSP synthase [1] = assay: Extract prescreens of library clones at a few glyphosate and PEP concentrations; assay type: biochemical; conditions: extracts; for activity in glyphosate prescreen: 0, 1, and 2 mM glyphosate, among 31 resistant clones
Procedure: Library 1 was cloned into pAX3625 and 130,000 clones were plated onto plates containing 50 mM glyphosate. […] Extracts were prepared and assessed for glyphosate resistance by assaying activity in the presence of a small number of glyphosate concentrations (0, 1, and 2 mM glyphosate).
Extracts from these six clones were assayed for activity at a range of PEP concentrations (0, 20, 50, and 100 μM PEP).
One hundred and fifteen thousand (115,000) clones were plated onto plates containing 50 mM glyphosate and 384 glyphosate resistant clones were picked for sequencing. […] A Ki assessment of the unique clones was carried out by testing activity at 0 and 0.2 mM glyphosate. […] An assessment of the Km of protein encoded by these nine clones was performed by comparing activity at 0, 20, and 50 μM PEP.

GRG31 EPSP synthase [2] = assay: Kinetic analysis of GRG31 variants (Ki for glyphosate, Km for PEP, Vmax); assay type: biochemical; parameters: Vmax: unit not given here; conditions: for Ki: Ki for glyphosate, calculated from plot of Km(app) vs. glyphosate concentration; for Km: Km for PEP; for Vmax: unit not given
Procedure: GRG31 variants L3P2b11, L3P2c11 and L4e11, and L5e3 were characterized by enzymatic assays as described herein, and compared to the native GRG31 enzyme. For each enzyme the apparent Km (Km(app)) was determined at each of several glyphosate concentrations, and a plot of Km(app) vs. glyphosate concentration was used to calculate the Ki for each enzyme. The thermostability for each enzyme was assessed by incubating the enzyme at 37° C. for 16 hours, and then quantifying the enzymatic activity remaining (as Vmax) vs. control enzyme that was incubated at 4° C.

| Molecule | activity in glyphosate prescreen (GRG31 EPSP synthase [1]) | Ki (GRG31 EPSP synthase [2]) [µM] | Km (GRG31 EPSP synthase [2]) [µM] | Vmax (GRG31 EPSP synthase [2]) | further results |
| --- | --- | --- | --- | --- | --- |
| GRG31pm3a11: GRG31 Q-loop library 1 variant, SEQ ID NO:7 (protein, GRG31 variant (clone GRG31pm3a11)) MNQQVITLTHPSKKIQGTVQLTGSKSESNRALIIQSLSKGQVEIANLSEAADTVTLNRVLQIASDPKPGFNTIDCGNAGTSVRFLTGFLNLVKGNFILTGTERMQQRPIGILVDAMKEIGADIHYDKKVGYPPLKIEGGLFQEKDRVKIKGNISSQYISALLLIAPALKKGLTLEIEGELTSRPYVSMTLDMLKSVGIQHEWKNNAIKIAPQAFEKQTIYVEPDWSAASYWYAIAALADANASIVLPGLRKNSLQGDIAIISIMEHFGVQSSFESDGLHLNKKVIGSDVSLFNFKECPDLAQTVVVVAAALKRDVSFTGLETLKIKETDRIAALQKEIAKFGAELIEDGDTYHLKTAQVYQPEEVTFDTYEDHRMAMAFAPLALVFDQIKIAEPQVVEKSYPDFWNHLQAQAFVIE | best activity |  |  |  | activity at low PEP concentrations (GRG31 EPSP synthase [1]; 0, 20, 50, and 100 μM PEP, among six clones): best activity at low PEP concentrations |
| GRG31pm3a6: GRG31 Q-loop library 1 variant, SEQ ID NO:8 (protein, GRG31 variant (clone GRG31pm3a6)) MNQQVITLTHPSKKIQGTVQLTGSKSESNRALIIQSLSKGQVEIANLSEAADTVTLNRVLQIASDPKPGFNTIDCGNAGTSMRFLTAVLNLVKGNFILTGTERMQQRPIGILVDAMKEIGADIHYDKKVGYPPLKIEGGLFQEKDRVKIKGNISSQYISALLLIAPALKKGLTLEIEGELTSRPYVSMTLDMLKSVGIQHEWKNNAIKIAPQAFEKQTIYVEPDWSAASYWYAIAALADANASIVLPGLRKNSLQGDIAIISIMEHFGVQSSFESDGLHLNKKVIGSDVSLFNFKECPDLAQTVVVVAAALKRDVSFTGLETLKIKETDRIAALQKEIAKFGAELIEDGDTYHLKTAQVYQPEEVTFDTYEDHRMAMAFAPLALVFDQIKIAEPQVVEKSYPDFWNHLQAQAFVIE | best activity |  |  |  |  |
| L3P2b11 + 6e7: GRG31 variant P77→Q; A81→S; M82→L; Y88→F; E215→K, SEQ ID NO:22 (protein, GRG31 variant (L3P2b11+6e)) MNQQVITLTHPSKKIQGTVQLTGSKSESNRALIIQSLSKGQVEIANLSEAADTVTLNRVLQIASDPKPGFNTIDIGQAGTSLRFLTAFLNLVKGNFILTGTERMQQRPIGILVDAMKEIGADIHYDKKVGYPPLKIEGGLFQEKDRVKIKGNISSQYISALLLIAPALKKGLTLEIEGELTSRPYVSMTLDMLKSVGIQHEWKNNAIKIAPQAFKKQTIYVEPDWSAASYWYAIAALADANASIVLPGLRKNSLQGDIAIISIMEHFGVQSSFESDGLHLNKKVIGSDVSLFNFKECPDLAQTVVVVAAALKRDVSFTGLETLKIKETDRIAALQKEIAKFGAELIEDGDTYHLKTAQVYQPEEVTFDTYEDHRMAMAFAPLALVFDQIKIAEPQVVEKSYPDFWNHLQAQAFVIE |  | 1010 | 10.3 | 0.86 |  |
| L3P2b11 + triple EK: GRG31 variant P77→Q; A81→S; M82→L; Y88→F; N95→S, A206→V; E215→K, SEQ ID NO:24 (protein, GRG31 variant (L3P2b11+triple EK)) MNQQVITLTHPSKKIQGTVQLTGSKSESNRALIIQSLSKGQVEIANLSEAADTVTLNRVLQIASDPKPGFNTIDIGQAGTSLRFLTAFLNLVKGSFILTGTERMQQRPIGILVDAMKEIGADIHYDKKVGYPPLKIEGGLFQEKDRVKIKGNISSQYISALLLIAPALKKGLTLEIEGELTSRPYVSMTLDMLKSVGIQHEWKNNVIKIAPQAFKKQTIYVEPDWSAASYWYAIAALADANASIVLPGLRKNSLQGDIAIISIMEHFGVQSSFESDGLHLNKKVIGSDVSLFNFKECPDLAQTVVVVAAALKRDVSFTGLETLKIKETDRIAALQKEIAKFGAELIEDGDTYHLKTAQVYQPEEVTFDTYEDHRMAMAFAPLALVFDQIKIAEPQVVEKSYPDFWNHLQAQAFVIE |  | 606 | 12.3 | 0.72 |  |
| GRG31pm3a8: GRG31 Q-loop library 1 variant, SEQ ID NO:9 (protein, GRG31 variant (clone GRG31pm3a8)) MNQQVITLTHPSKKIQGTVQLTGSKSESNRALIIQSLSKGQVEIANLSEAADTVTLNRVLQIASDPKPGFNTIDCGPAGTGVRFLTAFLNLVKGNFILTGTERMQQRPIGILVDAMKEIGADIHYDKKVGYPPLKIEGGLFQEKDRVKIKGNISSQYISALLLIAPALKKGLTLEIEGELTSRPYVSMTLDMLKSVGIQHEWKNNAIKIAPQAFEKQTIYVEPDWSAASYWYAIAALADANASIVLPGLRKNSLQGDIAIISIMEHFGVQSSFESDGLHLNKKVIGSDVSLFNFKECPDLAQTVVVVAAALKRDVSFTGLETLKIKETDRIAALQKEIAKFGAELIEDGDTYHLKTAQVYQPEEVTFDTYEDHRMAMAFAPLALVFDQIKIAEPQVVEKSYPDFWNHLQAQAFVIE | best activity |  |  |  |  |
| L3P2c11 + 6e7: GRG31 variant Y88→F; E215→K, SEQ ID NO:21 (protein, GRG31 variant (L3P2c11+6e7)) MNQQVITLTHPSKKIQGTVQLTGSKSESNRALIIQSLSKGQVEIANLSEAADTVTLNRVLQIASDPKPGFNTIDIGPAGTAMRFLTAFLNLVKGNFILTGTERMQQRPIGILVDAMKEIGADIHYDKKVGYPPLKIEGGLFQEKDRVKIKGNISSQYISALLLIAPALKKGLTLEIEGELTSRPYVSMTLDMLKSVGIQHEWKNNAIKIAPQAFKKQTIYVEPDWSAASYWYAIAALADANASIVLPGLRKNSLQGDIAIISIMEHFGVQSSFESDGLHLNKKVIGSDVSLFNFKECPDLAQTVVVVAAALKRDVSFTGLETLKIKETDRIAALQKEIAKFGAELIEDGDTYHLKTAQVYQPEEVTFDTYEDHRMAMAFAPLALVFDQIKIAEPQVVEKSYPDFWNHLQAQAFVIE |  | 416 | 8.6 | 23.5 | Vmax improvement over the GRG31(L3P2c11) protein (GRG31 EPSP synthase [2]; relative to GRG31(L3P2c11), in words): about four to five-fold; Vmax relative to GRG31 (GRG31 EPSP synthase [2]; relative to GRG31, in words): approximately equal to that of GRG31; improvement in Ki for glyphosate relative to GRG31 (GRG31 EPSP synthase [2]; relative to GRG31, in words): more than four-fold; improvement in Km for PEP relative to GRG31 (GRG31 EPSP synthase [2]; relative to GRG31, in words): approximately two-fold |
| L4e11: GRG31 variant I75→C; A78→S; Y88→H, SEQ ID NO:16 (protein, GRG31 variant (clone 4e11)) MNQQVITLTHPSKKIQGTVQLTGSKSESNRALIIQSLSKGQVEIANLSEAADTVTLNRVLQIASDPKPGFNTIDCGPSGTAMRFLTAHLNLVKGNFILTGTERMQQRPIGILVDAMKEIGADIHYDKKVGYPPLKIEGGLFQEKDRVKIKGNISSQYISALLLIAPALKKGLTLEIEGELTSRPYVSMTLDMLKSVGIQHEWKNNAIKIAPQAFEKQTIYVEPDWSAASYWYAIAALADANASIVLPGLRKNSLQGDIAIISIMEHFGVQSSFESDGLHLNKKVIGSDVSLFNFKECPDLAQTVVVVAAALKRDVSFTGLETLKIKETDRIAALQKEIAKFGAELIEDGDTYHLKTAQVYQPEEVTFDTYEDHRMAMAFAPLALVFDQIKIAEPQVVEKSYPDFWNHLQAQAFVIE |  | 389 | 12.4 | 3.5 | improvement in Ki for glyphosate relative to GRG31 (GRG31 EPSP synthase [2]; relative to GRG31, in words): improved |
| GRG31pm3b9: GRG31 Q-loop library 1 variant, SEQ ID NO:11 (protein, GRG31 variant (clone GRG31pm3b9)) MNQQVITLTHPSKKIQGTVQLTGSKSESNRALIIQSLSKGQVEIANLSEAADTVTLNRVLQIASDPKPGFNTIDCDAAGTSMRFLAAYLNLVKGNFILTGTERMQQRPIGILVDAMKEIGADIHYDKKVGYPPLKIEGGLFQEKDRVKIKGNISSQYISALLLIAPALKKGLTLEIEGELTSRPYVSMTLDMLKSVGIQHEWKNNAIKIAPQAFEKQTIYVEPDWSAASYWYAIAALADANASIVLPGLRKNSLQGDIAIISIMEHFGVQSSFESDGLHLNKKVIGSDVSLFNFKECPDLAQTVVVVAAALKRDVSFTGLETLKIKETDRIAALQKEIAKFGAELIEDGDTYHLKTAQVYQPEEVTFDTYEDHRMAMAFAPLALVFDQIKIAEPQVVEKSYPDFWNHLQAQAFVIE | best activity |  |  |  |  |
| L3P2b11 + 6b2: GRG31 variant P77→Q; A81→S; M82→L; Y88→F; N95→S, A206→V, SEQ ID NO:26 (protein, GRG31 variant (L3P2b11+6b2)) MNQQVITLTHPSKKIQGTVQLTGSKSESNRALIIQSLSKGQVEIANLSEAADTVTLNRVLQIASDPKPGFNTIDIGQAGTSLRFLTAFLNLVKGSFILTGTERMQQRPIGILVDAMKEIGADIHYDKKVGYPPLKIEGGLFQEKDRVKIKGNISSQYISALLLIAPALKKGLTLEIEGELTSRPYVSMTLDMLKSVGIQHEWKNNVIKIAPQAFEKQTIYVEPDWSAASYWYAIAALADANASIVLPGLRKNSLQGDIAIISIMEHFGVQSSFESDGLHLNKKVIGSDVSLFNFKECPDLAQTVVVVAAALKRDVSFTGLETLKIKETDRIAALQKEIAKFGAELIEDGDTYHLKTAQVYQPEEVTFDTYEDHRMAMAFAPLALVFDQIKIAEPQVVEKSYPDFWNHLQAQAFVIE |  | 628 | 8 | 0.59 |  |

Reference: patent publication US8247535B2, “Directed evolution of GRG31 EPSP synthase enzyme” (Athenix Corp., priority 2008, dated 2012)
